# Test results published in PMC10167327.
# Tests used:
# [1] = target: Vtc4* (Vtc4(1–487), SPX and TTM domains of Vtc4 without the transmembrane domain) (S. cerevisiae) (UniProt P47075); experiment: MST; as a1, MST buffer supplemented with 2.5 mM IP6
# [2] = target: Vtc4* (Vtc4(1–487), SPX and TTM domains of Vtc4 without the transmembrane domain) (S. cerevisiae) (UniProt P47075); experiment: MST; as a1, MST buffer supplemented with 2.5 mM 1,5-IP8
# [3] = target: Vtc4* (Vtc4(1–487), SPX and TTM domains of Vtc4 without the transmembrane domain) (S. cerevisiae) (UniProt P47075); experiment: MST; as a1, MST buffer supplemented with 2.5 mM natural 5-IP7
# [4] = target: Vtc4* (Vtc4(1–487), SPX and TTM domains of Vtc4 without the transmembrane domain) (S. cerevisiae) (UniProt P47075); experiment: MST; conditions: domain or fragment
# Chain of Vtc4* (Vtc4(1–487), SPX and TTM domains of Vtc4 without the transmembrane domain) (S. cerevisiae) (P47075 1-487): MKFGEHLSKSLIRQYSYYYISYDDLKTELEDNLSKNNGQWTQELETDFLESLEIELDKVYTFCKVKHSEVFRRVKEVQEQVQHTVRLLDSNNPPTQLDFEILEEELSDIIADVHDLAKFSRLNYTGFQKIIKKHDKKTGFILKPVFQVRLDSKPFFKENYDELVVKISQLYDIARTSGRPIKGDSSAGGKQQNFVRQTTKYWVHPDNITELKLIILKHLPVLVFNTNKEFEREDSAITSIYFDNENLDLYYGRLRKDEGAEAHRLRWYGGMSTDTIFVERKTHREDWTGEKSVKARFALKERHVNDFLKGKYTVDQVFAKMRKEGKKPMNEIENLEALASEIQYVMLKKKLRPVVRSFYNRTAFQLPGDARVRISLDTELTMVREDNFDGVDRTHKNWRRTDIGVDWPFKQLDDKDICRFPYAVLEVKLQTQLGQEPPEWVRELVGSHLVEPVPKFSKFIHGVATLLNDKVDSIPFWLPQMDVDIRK
# Chain of SPX2∆α1 (SPX2 with helix α1 truncated) (P43585 1-151): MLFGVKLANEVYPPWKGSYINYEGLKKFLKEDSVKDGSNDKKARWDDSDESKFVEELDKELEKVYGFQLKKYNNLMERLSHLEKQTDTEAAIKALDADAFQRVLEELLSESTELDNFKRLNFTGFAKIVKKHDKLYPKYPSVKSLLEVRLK
Substance,fold decrease of affinity with 2.5 mM IP6 against no ligand [1],"fold decrease of affinity with 2.5 mM 1,5-IP8 against no ligand [2]",fold decrease of affinity with 2.5 mM 5-IP7 against no ligand [3],Kd [4]
"SPX2 (SPX domain of Vtc2, Vtc2(1–201)) (from UniProt P43585 1-201) (domain or fragment)",> 20 fold,> 100000 fold,85 fold,
SPX2∆α1 (SPX2 with helix α1 truncated),,,,1000 µM
